From PMC2937989 (The Journal of Biological Chemistry, 2010) come the findings set out here.

B2: chicken vinculin domain 1 (Vd1; residues 1–258) (domain or fragment, UniProt P12003 1-258, looked up)
chain: MPVFHTRTIESILEPVAQQISHLVIMHEEGEVDGKAIPDLTAPVSAVQAAVSNLVRVGKETVQTTEDQILKRDMPPAFIKVENACTKLVRAAQMLQADPYSVPARDYLIDGSRGILSGTSDLLLTFDEAEVRKIIRVCKGILEYLTVAEVVETMEDLVTYTKNLGPGMTKMAKMIDERQQELTHQEHRVMLVNSMNTVKELLPVLISAMKIFVTTKNTKSQGIEEALKNRNFTVEKMSAEINEIIRVLQLTSWDEDAW

In assay [1] the target is B2. Description: SEC.
In assay [2] the target is talin(1359–1659), talin 9-helix module (mouse, UniProt P26039 1359-1659). Description: SEC.
Chain of talin(1359–1659), talin 9-helix module (P26039 1359-1659): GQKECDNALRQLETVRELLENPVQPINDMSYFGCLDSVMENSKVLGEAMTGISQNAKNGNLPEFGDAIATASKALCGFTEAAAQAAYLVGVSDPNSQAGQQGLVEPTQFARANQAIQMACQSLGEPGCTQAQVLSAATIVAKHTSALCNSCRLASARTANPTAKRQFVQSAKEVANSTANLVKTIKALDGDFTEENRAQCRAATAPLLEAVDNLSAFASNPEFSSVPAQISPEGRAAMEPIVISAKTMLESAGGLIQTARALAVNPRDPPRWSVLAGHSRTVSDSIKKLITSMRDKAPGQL

B1: talin 4-helix bundle (residues 1458–1584) (domain or fragment, mouse, UniProt P26039 1458-1584, looked up)
chain: QQGLVEPTQFARANQAIQMACQSLGEPGCTQAQVLSAATIVAKHTSALCNSCRLASARTANPTAKRQFVQSAKEVANSTANLVKTIKALDGDFTEENRAQCRAATAPLLEAVDNLSAFASNPEFSSV
On to B1, for which the binding result in assay [1] is recorded as “binds”.
As for B2, the binding result in assay [2] is reported as “binds”.
